In the supplement of paper PMC10567573:

B1: ATL3 (parent)
chain: QELEEEIKELYENFCKHNGSKNVF

Variants of: B1
Assay: protein stability index of a GFP-peptide fusion (GPS, HEK-293T) (PSI 1-6); higher = more stable
Settings: c terminus: a fixed tail appended
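Further: lentivirally expressed fusions sorted by FACS into six bins by GFP to DsRed ratio, PSI derived from sequencing read proportions per bin multiplied by bin number.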

| Variant | protein stability index |
| --- | --- |
| QELEEEIKELYENFWKHNGSKNVF [C15W] | 3.73 |
| QELEEEIKELYENFQKHNGSKNVF [C15Q] | 3.67 |
| QELEEEIKELYENFTKHNGSKNVF [C15T] | 3.5 |
| QELEEEIKELYENFKKHNGSKNVF [C15K] | 3.49 |
| QELEEEIKELYENFPKHNGSKNVF [C15P] | 3.91 |
| QELEEEIKELYENFDKHNGSKNVF [C15D] | 4.08 |
| QELEEEIKELYENFNKHNGSKNVF [C15N] | 3.97 |
| QELEEEIKELYENFCKANGSKNVF [H17A] | 2.52 |
| QELEEEIKELYENFCKKNGSKNVF [H17K] | 2.67 |
| QELEEEIKELYENFCKNNGSKNVF [H17N] | 2.51 |
| QELEEEIKELYENFCKFNGSKNVF [H17F] | 3.2 |
| QELEEEIKELYENFCKGNGSKNVF [H17G] | 2.75 |
| QELEEEIKELYENFCKENGSKNVF [H17E] | 2.51 |
| QELEEEIKELYENFCKINGSKNVF [H17I] | 2.94 |
| QELEEEIKELYENFCKMNGSKNVF [H17M] | 2.96 |
| QELEEEIKELYENFCKCNGSKNVF [H17C] | 2.65 |
| QELEEEIKELYENFCKDNGSKNVF [H17D] | 2.69 |
| QELEEEIKELYENFCKLNGSKNVF [H17L] | 2.99 |
| QELEEEIMELYENFCKHNGSKNVF [K8M] | 2.53 |
| QELEEEIIELYENFCKHNGSKNVF [K8I] | 2.36 |
| QELEEEIEELYENFCKHNGSKNVF [K8E] | 3.63 |
| QELEEEIHELYENFCKHNGSKNVF [K8H] | 2.86 |
| QELEEEIFELYENFCKHNGSKNVF [K8F] | 2.48 |
| QELEEEIRELYENFCKHNGSKNVF [K8R] | 2.24 |

| Variant | protein stability index |
| --- | --- |
| QELEEEISELYENFCKHNGSKNVF [K8S] | 3.37 |
| QELEEEIQELYENFCKHNGSKNVF [K8Q] | 3.01 |
| QELEEEILELYENFCKHNGSKNVF [K8L] | 2.24 |
| QELEEEICELYENFCKHNGSKNVF [K8C] | 3.01 |
| QELEEEIVELYENFCKHNGSKNVF [K8V] | 3.19 |
| QELEEEIAELYENFCKHNGSKNVF [K8A] | 2.96 |
| QELEEEINELYENFCKHNGSKNVF [K8N] | 2.45 |
| QELEEEIGELYENFCKHNGSKNVF [K8G] | 3.67 |
| QELEEEIDELYENFCKHNGSKNVF [K8D] | 3.41 |
| QELEEEIPELYENFCKHNGSKNVF [K8P] | 4.37 |
| QELEEEITELYENFCKHNGSKNVF [K8T] | 3.31 |
| QELEEEIYELYENFCKHNGSKNVF [K8Y] | 2.37 |
| QELEEEIWELYENFCKHNGSKNVF [K8W] | 2.68 |
| QELEEEIKELYLNFCKHNGSKNVF [E12L] | 2.12 |
| QELEEEIKELYGNFCKHNGSKNVF [E12G] | 3.27 |
| QELEEEIKELYANFCKHNGSKNVF [E12A] | 2.37 |
| QELEEEIKELYPNFCKHNGSKNVF [E12P] | 3.31 |
| QELEEEIKELYVNFCKHNGSKNVF [E12V] | 2.42 |
| QELEEEIKELYCNFCKHNGSKNVF [E12C] | 2.35 |
| QELEEEIKELYRNFCKHNGSKNVF [E12R] | 2.19 |
| QELEEEIKELYKNFCKHNGSKNVF [E12K] | 2.67 |
| QELEEEIKELYINFCKHNGSKNVF [E12I] | 2.27 |
| QELEEEIKELYNNFCKHNGSKNVF [E12N] | 2.53 |
| QELEEEIKELYTNFCKHNGSKNVF [E12T] | 2.83 |

| Variant | protein stability index |
| --- | --- |
| QELEEEIKELYSNFCKHNGSKNVF [E12S] | 3.13 |
| QELEEEIKELYDNFCKHNGSKNVF [E12D] | 2.89 |
| QELEEEIKELYMNFCKHNGSKNVF [E12M] | 2.41 |
| QELEEEIKELYFNFCKHNGSKNVF [E12F] | 2.56 |
| QELEEEIKELYQNFCKHNGSKNVF [E12Q] | 2.39 |
| QELEEEIKELYYNFCKHNGSKNVF [E12Y] | 2.03 |
| QELEEEIKELYHNFCKHNGSKNVF [E12H] | 2.81 |
| QELEEEIKELYWNFCKHNGSKNVF [E12W] | 1.98 |
| QELEEEIKELYERFCKHNGSKNVF [N13R] | 2.55 |
| QELEEEIKELYEYFCKHNGSKNVF [N13Y] | 2.34 |
| QELEEEIKELYEWFCKHNGSKNVF [N13W] | 2.37 |
| QELEEEIKELYEHFCKHNGSKNVF [N13H] | 2.83 |
| QELEEEIKELYEQFCKHNGSKNVF [N13Q] | 2.13 |
| QELEEEIKELYEKFCKHNGSKNVF [N13K] | 2.15 |
| QELEEEIKELYEIFCKHNGSKNVF [N13I] | 2.13 |
| QELEEEIKELYEVFCKHNGSKNVF [N13V] | 2.89 |
| QELEEEIKELYETFCKHNGSKNVF [N13T] | 2.86 |
| QELEEEIKELYEPFCKHNGSKNVF [N13P] | 3.73 |
| QELEEEIKELYEFFCKHNGSKNVF [N13F] | 2.72 |
| QELEEEIKELYELFCKHNGSKNVF [N13L] | 1.83 |
| QELEEEIKELYEEFCKHNGSKNVF [N13E] | 2.11 |
| QELEEEIKELYEAFCKHNGSKNVF [N13A] | 1.72 |
| QELEEEIKELYEDFCKHNGSKNVF [N13D] | 3.15 |
| QELEEEIKELYECFCKHNGSKNVF [N13C] | 2.26 |

| Variant | protein stability index |
| --- | --- |
| QELEEEIKELYEGFCKHNGSKNVF [N13G] | 3.76 |
| QELEEEIKELYESFCKHNGSKNVF [N13S] | 2.6 |
| QELEEEIKELYEMFCKHNGSKNVF [N13M] | 1.79 |
| QELEEEIKELYENVCKHNGSKNVF [F14V] | 3.53 |
| QELEEEIKELYENCCKHNGSKNVF [F14C] | 3.75 |
| QELEEEIKELYENPCKHNGSKNVF [F14P] | 4.37 |
| QELEEEIKELYENYCKHNGSKNVF [F14Y] | 3.53 |
| QELEEEIKELYENQCKHNGSKNVF [F14Q] | 4.49 |
| QELEEEIKELYENGCKHNGSKNVF [F14G] | 4.42 |
| QELEEEIKELYENICKHNGSKNVF [F14I] | 3.16 |
| QELEEEIKELYENACKHNGSKNVF [F14A] | 4.29 |
| QELEEEIKELYENLCKHNGSKNVF [F14L] | 3.27 |
| QELEEEIKELYENRCKHNGSKNVF [F14R] | 4.1 |
| QELEEEIKELYENHCKHNGSKNVF [F14H] | 4.07 |
| QELEEEIKELYENSCKHNGSKNVF [F14S] | 4.58 |
| QELEEEIKELYENMCKHNGSKNVF [F14M] | 4.06 |
| QELEEEIKELYENKCKHNGSKNVF [F14K] | 4.5 |
| QELEEEIKELYENTCKHNGSKNVF [F14T] | 3.69 |
| QELEEEIKELYENECKHNGSKNVF [F14E] | 5.25 |
| QELEEEIKELYENDCKHNGSKNVF [F14D] | 4.46 |
| QELEEEIKELYENNCKHNGSKNVF [F14N] | 4.55 |
| QELEEEIKELYENWCKHNGSKNVF [F14W] | 2.58 |
